Test results as given in the supplement of paper PMC9170038.

System: MS2 coat protein
Experiment: apparent KD of MS2 coat protein; higher = weaker reporter binding
Details: Eterna round: R107
Method in brief: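 On-chip transcription from Illumina sequencing clusters produced the designed RNA switches. These were titrated with SNAP-549-labelled MS2 coat protein (twofold steps, 0.7 or 1.5 nM to 3 µM) in 100 mM Tris-HCl pH 7.5, 80 mM KCl, 4 mM MgCl2, with or without constant ligand. The apparent KD given is the per-design median of normalised cluster binding-curve fits.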

[1] = input ligand: theophylline 20 uM
[2] = input ligand: tryptophan 2.4 mM
[3] = input ligand: theophylline 2 mM

Sequence | apparent KD of MS2 coat protein (input ligand: arginine 13.2 mM) [nM] | apparent KD of MS2 coat protein [1] [nM] | apparent KD of MS2 coat protein [2] [nM] | apparent KD of MS2 coat protein [3] [nM] | apparent KD of MS2 coat protein (input ligand: none) [nM]
CAUCCACCUGAAGCCUCCCAAUUCCUCGAUACCAGAGGAUUAAGACUCCCUUGGCAGCGAGCUACAUGAGGAUCACCCAUGUGCC [theeternabot_exclusion_MS2_Theo_A_32] | 17.8 | 24.1 | 18.2 | – | –
CAUCCUAGUACAUGAGGAUCACCCAUGUAUCGAGGACCGGUACGGCCGCCACUCGAAUGGCGGAUCGUUAAUCCUCUAGGAUGGA [Tryp A Ex 4a] | 11.7 | 14 | – | 11.5 | –
CAUGCCAGGGCGGCCGCCACUGUGGCUACGGUACAUGAGGAUCACCCAUGUUUGUGGUUGAUCUACAGGACCGGGCCCUAGCACG [Anananenes] | 30.6 | 597 | – | 528 | –
CAUUAAUUACGAAGGAGCGUCGAAAAUGGGUAAACAUGAGGAUCACCCAUGUAAAGGGAACGACAGGUAGGUCGCGUAAUUAAUG [AstromonsSSArgB#2] | 132 | 169 | 158 | 230 | 170
CAUUAUGUAACUGAUACCAGUGUACUGACAUGAGGAUCACCCAUGUUGGGUUUUGUUGUACACCCUUGGCAGCAGAAUCAUAAUG [AstrosExyTheB#2] | 43.3 | 70.3 | 57.8 | – | –
CAUUGAGCAGCUGAUACCAGUGCCUGAACUUACAUGAGGAUCACCCAUGUAUGCCCAAAACACCCUUGGCAGCAGAGGAAGAUCG [theeternabot_sameState_MS2_Theo_B_38] | 15.2 | 18.9 | 14.5 | – | –
CCACACAUGAGGAUCACCCAUGUAAUUGAUACCAGAUUUAAAUGAGUCCCUUGGCAGCAGUGAGCUAGAGUUGUCGUAUAUAUGG [Theo A SS t2] | 14.2 | 23.8 | 16.1 | – | –
CCAUAGGGUAAAUACGUAAUCAUAUCUGAAGGAGCGUGGAUAUACACAGGUAGGUCGCAGAAUCACAUGAGGAUCACCCAUGUCU [Same State Arginine A GF12] | 28.8 | 39.8 | 42.7 | 47.5 | 41.2
CCAUUGAUGACGGCCGCCACUGUCUACAUGAGGAUCACCCAUGUAUAGCAGGGUGGACCUAUGGACAGGACCGGGUCACUUGUCC [Tryp B Ex t7] | 10.4 | 13.7 | – | 12.4 | –
CCCAAUUAGAUCUUUGGAAUUUUACUCGAAGGAGCGUCAUAGUAGGCAGGUAGGUCGCGAGACAUGAGGAUCACCCAUGUAGAGA [btbmullin] | 33 | 50.8 | 33 | 38.5 | 40.9
CCCUGGGUGGGAAGGAGCGCAUAGUGAACAUGAGGAUCACCCAUGUGUAGACGUGAGUCACUGCAGGUAGGUCGCCCACCCAGGG [SS-ArgB23] | 19.5 | 47.3 | 29.5 | 46.5 | 27.5
CCGGCGCGAUUAUGGGUUUGCUUUUACGAUACCAGCCGCGUUCCGGGCCCUUGGCAGCGUGUAACAUGAGGAUCACCCAUGUUCA [theeternabot_exclusion_MS2_Theo_A_37] | 9.81 | 20.7 | 10.1 | – | –
CCUAUUCCUACGGAUACCAGACGAUCCGUGGCGUGUGUGAACAUGAGGAUCACCCAUGUAGUCCCUUGGCAGCCGAUGCGGGUAA [theeternabot_exclusion_MS2_Theo_B_10] | 37.7 | 51.4 | 33.5 | – | –
CCUCAUGAACAUGAGGAUCACCCAUGUACACGAGGACCGGUACGGCCGCCACUCGAAUAAGCUAAAUAUAAAUAAUAAUAAUAGC [5' end split MS2] | 18.4 | 18.3 | – | 16.8 | –
CGAUCUUUCGAAAGAAGGAUCGAGUCUGAUACCAGAGACGAAAGUCUCCCUUGGCAGCAGUGCCAACAUGAGGAUCACCCAUGUU [Theophylline A 10] | 16.2 | 19.1 | 15.8 | – | –
CGAUGCGCAUUAUCCCACUGGUAUGAGUCUCGAGGACCGGUACGGCCGCCACUCGCUACCGUACAUGAGGAUCACCCAUGUAUUA [theeternabot_exclusion_MS2_Trp_A_13] | 23.7 | 38.8 | – | 35.9 | –
CGCACAGAGAAUGAUACCAGCGAGGAAGCGACAUGAGGAUCACCCAUGUGCGAAUGAUCCCGCCCUUGGCAGCGUAAGUGAUCCC [ss-theoB-?] | 59.3 | 154 | 62.6 | – | –
CGCGGUUGAGAUGGGCCUUUGAUAAGUCUGCGAGGACCGGUACGGCCGCCACUCGAGGACAUGAGGAUCACCCAUGUACUUCGCG [Atriera] | 51.1 | 81 | – | 57.7 | –
CGCUACAUAGCGGCCGCCACUGUCAUGGCUACGAUAGGUCACUCGUACAUGAGGAUCACCCAUGUCAGGACCGGGCUAUCCUCGC [theeternabot_exclusion_MS2_Trp_B_20] | 64.9 | 112 | – | 112 | –

Sequence | apparent KD of MS2 coat protein (input ligand: arginine 13.2 mM) [nM] | apparent KD of MS2 coat protein [1] [nM] | apparent KD of MS2 coat protein [2] [nM] | apparent KD of MS2 coat protein [3] [nM] | apparent KD of MS2 coat protein (input ligand: none) [nM]
CGGUUGCCACAUGAGGAUCACCCAUGUGAAGGAGCGGCGAAUAAGCCAGGUAGGUCGCGCAUGAAUAAAUCAUGUUGGUGCCGAA [XArg-A 17 V2] | 25.6 | 65.1 | 33.4 | 68.5 | 39.7
CGUCGAAACUGAAGGAGCGAGAUGACAACAUUGGGUCUAACAUGAGGAUCACCCAUGUAAUCUCAGGUAGGUCGCGGUGUCAACA [Exclusion Arginine B GF18] | 53.7 | 86.3 | 63.9 | 120 | 64.6
CUAAGAGCGGCGGCCGCCACUGGUAACCGAGAGGAGGAGCCUCUGACAUGAGGAUCACCCAUGUUCAGGACCGGGUCGUCUUAGA [#06 Same State - Tryptophan B] | 41.2 | 77.5 | 54.6 | 74.4 | 60.2
CUAUUUAUAGCGGCCGCCACUUACUCAUGAGGUAACAACAUGAGGAUCACCCAUGUUUGAGGAUCAAGGACCGGGCUAUAGAUAG [AstrosSSTryB#11] | 36.7 | 20.3 | 15 | 24.3 | 27.5
CUGACAGACUCGGCCGCCACUGAUAGUAGGACAUGAGGAUCACCCAUGUAAACAAACCUCAUAGCCAGGACCGGGAGUCACGAAG [Same State Tryptophan B GF 21] | 31 | 57.1 | 24.9 | 51.3 | 45.6
CUGCCACAGAUAGAUACCAGAGGCGUGCAAGCUACAGCUCACAUGAGGAUCACCCAUGUUCUCCCUUGGCAGCUACGGUGUAAGG [theeternabot_exclusion_MS2_Theo_B_26] | 17.1 | 24 | 19.4 | – | –
CUGGACAUGAGGAUCACCCAUGUAAAUCCUCGAGGACCGGUACGGCCGCCACUCGAACGAGUGGCGCGCGCGCGCGCGCGCGCGC [aIa] | 23.5 | 142 | 62.9 | 89.5 | 54.3
CUUAUAGUAACUGAUACCAGUGUACUGACAUGAGGAUCACCCAUGUUGGGUUUUGUUGUACACCCUUGGCAGCAGAAUCUAUAAG [AstrosExyTheB#10] | 49.2 | 65.7 | 58.8 | – | –
GACAUGAGGAUCACCCAUGUAUUGGGUGAUACCAGCCUGAAUCAUGGCCCUUGGCAGCACCGCGCUAACUUUAUGUUUGCGAACC [Mavegeceri] | 95 | 210 | 56.5 | – | –
GACAUGAGGAUCACCCAUGUUUUCUAUGAAGGAGCGUCGGAAAUGACAGGUAGGUCGCAUGGUAGGACUUGUAUCUUGUAUGUAG [EAA NP+V+V2 #10] | 13.4 | 16.2 | 15.5 | 14.7 | –
GACCGAUUAUAGUGCGAUUGUCUUGUGGAAGGAGCGCAGAGGACUGCAGGUAGGUCGCCACAUGAGGAUCACCCAUGUCAGGAUU [Reinorlaan] | 39.8 | 45.1 | 40.5 | 64.8 | 46
GACGAUAUGAUACGUCAGCAAUCCUCGAAACGAGGACCGGUACGGCCGCCACUCGAGUGAUACACAUGAGGAUCACCCAUGUACC [Tryp A Ex t3] | 30.9 | 49.6 | – | 49.4 | –
GAGGAAACUCACAUGAGGAUCACCCAUGUACGAGGACCGGUACGGCCGCCACUCGAAACCAUGGGCGGUAGUACGUGGAAGCUUG [Design 2 MOD 2] | 21.1 | 31.3 | – | 23.8 | –
GAGGGUGAAUCUCUGGUCCGUUUGACGGAUACCAGCGAGAGGUAUCGCCCUUGGCAGCCGACGACAUGAGGAUCACCCAUGUUAA [#08 Exclusion-TheophyllineA] | 18.9 | 30.4 | 18 | – | –
GAUGAACUAUUUGAUACCAGACCACAUGAGGAUCACCCAUGUGAGUUUCGUCCUUAGCCGGUCCCUUGGCAGCAAAUAGUUUAUC [#27 Exclusion-TheophyllineB] | 19.3 | 24.1 | 16.7 | – | –
GAUGAAGUAACUGAUACCAGUGUACUGACAUGAGGAUCACCCAUGUUGGGUUUUGUUGUACACCCUUGGCAGCAGAAUCUUUAUC [AstrosExyTheB#5] | 33.8 | 60.8 | 45.8 | – | –
GCACAUGAGGAUCACCCAUGUAUUACUGAAGGAGCGAGACAGAACUCAGGUAGGUCGCAGACUGCACAAUUGCGGACGACAUGGG [Exclusion Arginine A GF22] | 14.6 | 41 | 34.3 | 31.2 | 31.5
GCACCAGGUACGGAUACCAGACGUUGCCAAUUGGGUGCACAUGAGGAUCACCCAUGUUCUGUCCCUUGGCAGCCGUACCUGGUGC [EThB NP+V+V2 #5] | 10.2 | 13.5 | 9.12 | 73.2 | 10.1
GCACCAGGUACGGAUACCAGCUGCCCGAGAUACAUGAGGAUCACCCAUGUGACCUGAUUUAGCCCUUGGCAGCUGUACCUGGUGC [SSThB NP+V+V2 #1] | 148 | 189 | 285 | 55.9 | 333
